Data: US20220025008A1 (FAPON BIOTECH, published 2022)
Residue numbers refer to the chain shown, from its start. One block for each binder: values may come before it.

Target: T1, Recombinant NT antigen (N-terminal pro-brain natriuretic peptide, NT-proBNP) (human, UniProt P16860 27-102)
T1 construct: domain: N-terminal pro-brain natriuretic peptide (NT-proBNP); also called recombinant NT protein; N-terminal pro-B-type natriuretic peptide
T1 sequence (looked up): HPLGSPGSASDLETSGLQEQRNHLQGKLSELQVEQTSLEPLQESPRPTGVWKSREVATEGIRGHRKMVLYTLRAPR
Assay: indirect ELISA, KD calculated from half-max OD at 4 coating concentrations
Description: Recombinant NT antigen was diluted with coating solution to 1 μg/ml a microplate overnight at 4° C.; which was washed twice with washing solution and patted dry on the next day; with addition of blocking solution (20% BSA+80% PBS) at 120 μL per well at 37° C. for 1 h and patted dry; added the diluted NT monoclonal antibody, 100 μL/well at 37° C. for 30 min (partial supernatant for 1 h); washed 5 times with washing solution and patted dry; added rabbit anti-goat IgG-HRP […] per well at 37° C. for 30 min; washed 5 times with washing solution and patted dry; added color developing solution A (50 μL/well), added color developing solution B (50 μL/well) for 10 min; added stop solution, 50 μL/well; followed by reading the OD value at 450 nm (reference 630 nm) on the microplate reader.
Data from the enzyme immunoassay indirect method were analyzed in the same way as the activity identification, with four gradients of 3 μg/ml, 1.5 μg/ml, 0.75 μg/ml and 0.375 μg/ml for coating; the antibody was diluted from 1000 ng/ml by 2 times to 0.977 ng/ml for loading sample. OD values corresponding to different antibody concentrations at different coating concentrations were obtained. Under the same coating concentration, data were plotted logarithmically with the antibody concentration as the abscissa and the OD value as the ordinate.

Kd: 2.61 nM
B1: Mutation 1-2 (antibody, V domains shown)
VH: QVRLQESGPSQVKPAQTLSLTCAISGFSITTYYVDWVRHTPGKPPEWLAQMTKDGNAVHQPTLRSRLSITRDTSKSQVFLKLTGVTTEDTAVYYCVRGLIDWGPGLLVTVSS
VL: QAVLTQPSSVSRSLGQTVSITCSGSSDQVGFGDYINWFQLIPGSAPKTLIFGATSRVRGVPDRFSGSRSGNTATLTINSLQAEDEADYYCGSANSRGGYVFGSGTRLTVLS

Kd: 2.47 nM
B2: WT 1-9 (antibody, V domains shown)
VH: B1 VH with F27P, I29V, V34I, G55A, R97K
V domain: B1 VL with Q28N, F31P, I35V, G52A, T54Y, V57L, A93G, F101W

Kd: 2.53 nM
B3: Mutation 1-21 (antibody)
heavy: QVRLQESGPSQVKPAQTLSLTCAISGFSLTTYYIDWVRHTPGKPPEWLAQMTKDGNAVHQPTLRSRLSITRDTSKSQVFLKLTGVTTEDTAVYYCVRGLIDFGPGLLVTVSSASTTPPKVYPLTSCCGDTSSSIVTLGCLVSSYMPEPVTVTWNSGALTSGVHTFPAILQSSGLYSLSSVVTVPASTSGAQTFICNVAHPASSTKVDKRVEPGCPDPCKHCRCPPPELPGGPSVFIFPPKPKDTLTISGTPEVTCVVVDVGQDDPEVQFSWFVDNVEVRTARTKPREEQFNSTFRVVSALPIQHQDWTGGKEFKCKVHNEGLPAPIVRTISRTKGQAREPQVYVLAPPQEELSKSTLSVTCLVTGFYPDYIAVEWQKNGQPESEDKYGTTTSQLDADGSYFLYSRLRVDKNSWQEGDTYACVVMHEALHNHYTQKSISKPPGK
light: QAVLTQPSSVSRSLGQTVSITCSGSSDQVGFGDYINWFQLIPGSAPKTLIFGAYSRIRGVPDRFSGSRSGNTATLTINSLQAEDEADYYCGSANSRGGYVFGSGTRLTVLSQPKSAPSVTLFPPSKEELDTNKATVVCLISDFYPGSVNVVWKADGSTINQNVKTTQASKQSNSKYAASSYLTLTGSEWKSKSSYTCEVTHEGSTVTKTVKPSECS

Kd: 1.17 nM
B4: Mutation 1-24 (antibody, V domains shown)
VH: B1 VH with I29V, V34I, L63I, L99I
VL: B1 VL with I35V, T54S, V57I, A93P

Kd: 1.51 nM
B5: Mutation 1-26 (antibody, V domains shown)
VH: B1 VH with I29V
VL: B1 VL with I35V, T54S

Kd: 3.27 nM
B6: Mutation 1-16 (antibody, V domains shown)
VH: B1 VH with I29V, V34L, L63V, L99V
VL: B1 VL with Q28N, I35L, V57L, A93G

Kd: 0.875 nM
B7: Mutation 1-14 (antibody, V domains shown)
VH: B1 VH with I29L
VL: B1 VL with T54Y

Kd: 2.75 nM
B8: Mutation 1-12 (antibody, V domains shown)
VH: B1 VH with I29L, V34I, L63I, L99I
VL: B1 VL with I35V, T54Y, V57I, A93P

Kd: 2.07 nM
B9: Mutation 1-4 (antibody, V domains shown)
VH: B1 VH with I29L, V34L, L63V, L99V
VL: B1 VL with Q28N, I35L, T54Y, V57L, A93G

Kd: 2.25 nM
B10: Mutation 1-28 (antibody, V domains shown)
VH: B1 VH with V34L, L63V, L99V
VL: B1 VL with Q28N, I35L, T54S, V57L, A93G

Kd: 0.855 nM
B11: Mutation 1-27 (antibody)
heavy: B3 heavy with L29I, Q60N
light: QAVLTQPSSVSRSLGQTVSITCSGSSDNVGFGDYVNWFQLIPGSAPKTLIFGASSRIRGVPDRFSGSRSGNTATLTINSLQAEDEADYYCGSANSRNYVFGSGTRLTVLSQPKSAPSVTLFPPSKEELDTNKATVVCLISDFYPGSVNVVWKADGSTINQNVKTTQASKQSNSKYAASSYLTLTGSEWKSKSSYTCEVTHEGSTVTKTVKPSECS

Kd: 3.12 nM
B12: Mutation 1-34 (antibody, V domains shown)
VH: B1 VH with I29V, V34L, Q60N, L63I, L99V
VL: QAVLTQPSSVSRSLGQTVSITCSGSSDQVGFGDYLNWFQLIPGSAPKTLIFGAYSRLRGVPDRFSGSRSGNTATLTINSLQAEDEADYYCGSANSRNYVFGSGTRLTVLS

Kd: 17.8 nM
B13: WT 1-1 (antibody, V domains shown)
VH: B1 VH with F27P, I29V, V34I, G55A, Q60N, L63I, R97K, L99V
V domain: B12 VL with Q28N, F31P, L35I, G52A, L57I, F100W

Kd: 3.48 nM
B14: WT 1-2 (antibody, V domains shown)
VH: B1 VH with F27P, I29L, V34I, G55A, R97K, L99V
V domain: B12 VL with Q28N, F31P, G52A, Y54S, L57I, A93P, F100W

Kd: 6.83 nM
B15: Mutation 1-49 (antibody)
heavy: B3 heavy with I34L, Q60N, L63I, L99I
light: B11 light with N28Q, V35L, S54T, I57L, A93P

Kd: 2.45 nM
B16: Mutation 1-39 (antibody)
heavy: B3 heavy with Q60N
light: B11 light with S54Y, A93G

Kd: 0.944 nM
B17: Mutation 1-51 (antibody)
heavy: B3 heavy with L29V, Q60N
light: B11 light with S54Y

Kd: 1.84 nM
B18: Mutation 1-31 (antibody)
heavy: B3 heavy with I34L, L63V, L99I
light: B11 light with V35L, S54T, I57L, A93G

Kd: 1.57 nM
B19: Mutation 1-37 (antibody)
heavy: B3 heavy with L29I, I34L, Q60N, L63I, L99I
light: B11 light with N28Q, V35L, S54T, I57L

Kd: 2.53 nM
B20: WT 1-3 (antibody)
heavy: B3 heavy with F27P, L29I, I34L, G55A, L63I, R97K
light: B11 light with F31P, G52A, S54T, F100W

Kd: 4.78 nM
B21: WT 1-8 (antibody, V domains shown)
VH: B1 VH with F27P, I29L, G55A, L63V, R97K, L99I
V domain: B12 VL with Q28N, F31P, L35I, G52A, L57V, A93P, F100W
